These results are taken from patent US20160002357A1 (Pfizer, published 2016).

Values joined by “and” are separate entries in the source; they are usually repeats but may differ in a detail not shown here. Identical values can stand only once. Like-named read-outs stand apart in the source and are kept apart here.

Usually Kd stands for the free concentration of one partner at which half of the binding sites on the other are occupied at equilibrium, for simple one-to-one binding. As a reminder, the koff is the rate constant with which the complex falls apart. As a reminder, the kon is the rate constant with which the complex forms. One may read the t½ as how long it takes for the measured level to halve.

Assay [1] addresses T1, human P-cadherin expressed on the cell surface (human, UniProt P22223 108-829). Put plainly: cell-based or functional assay.
Another assay concerns the target T2, muP-cad-ECD (murine, UniProt P10287 100-647).
T2 construct: extracellular domain; also called murine P-cadherin; murine P-cadherin ECD
T2 sequence (looked up): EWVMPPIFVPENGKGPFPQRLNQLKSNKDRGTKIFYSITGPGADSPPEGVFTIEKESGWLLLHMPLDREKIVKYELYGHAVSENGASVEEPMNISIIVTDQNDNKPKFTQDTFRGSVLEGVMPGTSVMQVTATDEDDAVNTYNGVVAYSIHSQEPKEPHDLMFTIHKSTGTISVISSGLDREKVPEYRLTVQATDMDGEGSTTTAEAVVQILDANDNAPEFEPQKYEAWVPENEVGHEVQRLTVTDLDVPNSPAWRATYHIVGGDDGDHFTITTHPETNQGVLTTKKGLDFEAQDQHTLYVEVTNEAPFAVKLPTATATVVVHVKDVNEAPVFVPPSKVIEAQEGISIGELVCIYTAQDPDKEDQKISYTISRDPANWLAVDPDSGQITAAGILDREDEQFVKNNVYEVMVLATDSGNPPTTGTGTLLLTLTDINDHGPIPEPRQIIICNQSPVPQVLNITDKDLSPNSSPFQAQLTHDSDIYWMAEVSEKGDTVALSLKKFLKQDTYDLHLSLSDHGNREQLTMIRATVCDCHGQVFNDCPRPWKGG
The assay is described as follows: SPR Biacore. On the technique in general: In SPR one partner is held on a chip, and binding of the other changes the refractive index at the surface.

Assay [2] addresses T3, cynomolgus monkey P-cadherin ECD (cynomolgus monkey).
T3 construct: extracellular domain; also called cyno P-cadherin ECD; Cyno P-cadherin
Put plainly: SPR Biacore affinity.

For assay [3], the target named is T3, cynomolgus monkey P-cadherin ECD. The assay is described as follows: SPR Biacore pH 7.4.
Assay [4] has the same target. The assay is described as follows: SPR Biacore.
Another assay addresses T4, P-cadherin ECD1-2-Fc (human, UniProt P22223 108-328).
T4 construct: Signal peptide and pro-peptide of the construct left out (see ECD1-Fc); not shown: cleavable linker; hinge and CH2 and CH3 domains of human IgG1
Put plainly: protein ELISA. A general note: In an ELISA, binding on a coated surface is turned into a signal by an enzyme label.

A further assay addresses T5, P-cadherin ECD1-Fc (human, UniProt P22223 108-215).
T5 construct: PACE was co-transfected for processing of the propeptide, so both are left out here; not shown: cleavable linker; hinge and CH2 and CH3 domains of human IgG1
Put plainly: protein ELISA.

Assay [5] concerns the target T1, human P-cadherin expressed on the cell …. The assay is described as follows: cell-based or functional assay. This is another data set of the same source.
In assay [6] the target is T3, cynomolgus monkey P-cadherin ECD. The assay is described as follows: SPR Biacore pH 7.4, average.
The target is the same in assay [7]. Put plainly: SPR Biacore, average.
For assay [8] the target is unchanged. The assay is described as follows: SPR Biacore affinity. The source holds these as a separate data set.
Assay [9] deals with T1, human P-cadherin expressed on the cell …. The assay is described as follows: cell-based or functional assay. This is another data set of the same source.

T1 sequence (P22223 108-829): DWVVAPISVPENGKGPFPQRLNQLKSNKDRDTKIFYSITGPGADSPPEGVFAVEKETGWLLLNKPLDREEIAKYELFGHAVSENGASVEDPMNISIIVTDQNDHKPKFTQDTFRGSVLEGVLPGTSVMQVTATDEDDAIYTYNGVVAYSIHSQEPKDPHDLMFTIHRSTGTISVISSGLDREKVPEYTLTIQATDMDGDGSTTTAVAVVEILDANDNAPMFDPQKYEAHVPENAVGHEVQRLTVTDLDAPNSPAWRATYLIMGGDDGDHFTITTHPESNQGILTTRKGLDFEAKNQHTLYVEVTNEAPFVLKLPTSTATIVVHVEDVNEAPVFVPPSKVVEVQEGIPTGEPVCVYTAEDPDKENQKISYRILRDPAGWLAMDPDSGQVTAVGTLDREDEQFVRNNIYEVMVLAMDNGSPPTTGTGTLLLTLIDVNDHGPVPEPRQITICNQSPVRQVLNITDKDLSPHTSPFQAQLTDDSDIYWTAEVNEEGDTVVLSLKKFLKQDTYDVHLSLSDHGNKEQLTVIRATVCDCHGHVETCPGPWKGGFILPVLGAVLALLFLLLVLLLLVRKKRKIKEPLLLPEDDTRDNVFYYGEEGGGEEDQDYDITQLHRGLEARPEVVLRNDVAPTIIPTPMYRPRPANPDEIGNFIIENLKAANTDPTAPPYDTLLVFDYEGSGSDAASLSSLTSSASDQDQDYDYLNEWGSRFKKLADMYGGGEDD
T4 sequence (P22223 108-328): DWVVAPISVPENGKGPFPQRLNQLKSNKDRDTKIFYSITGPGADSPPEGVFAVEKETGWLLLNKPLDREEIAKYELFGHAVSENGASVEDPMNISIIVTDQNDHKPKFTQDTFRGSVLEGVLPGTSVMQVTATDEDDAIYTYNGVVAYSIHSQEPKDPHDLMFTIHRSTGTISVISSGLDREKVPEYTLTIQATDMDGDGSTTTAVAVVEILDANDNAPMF
T5 sequence (P22223 108-215): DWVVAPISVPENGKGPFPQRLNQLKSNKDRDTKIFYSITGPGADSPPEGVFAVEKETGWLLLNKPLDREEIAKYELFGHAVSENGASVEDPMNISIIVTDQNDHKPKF

B1: 153 LP-DART (bispecific antibody)
chain 1: QSVLTQPPSVSAAPGQKVTISCSGSSSNIGNNYVSWYQQLPGTAPKLLIYDNNKRPSGIPDRFSGSKSGTSATLGITGLQTGDEADYYCGTWDSSLSGVVFGGGTKLTVLGGGSGGGGEVQLVESGGGLVQPGGSLRLSCAASGFTFSTYAMNWVRQAPGKGLEWVGRIRSKYNNYATYYADSVKGRFTISRDDSKNSLYLQMNSLKTEDTAVYYCVRHGNFGNSYVSWFAYWGQGTLVTVSSGCPPCPAPEAAGAPSVFLFPPKPKDTLMISRTPEVTCVVVDVSHEDPEVKFNWYVDGVEVHNAKTKPREEQYNSTYRVVSVLTVLHQDWLNGKEYKCKVSNKALPAPIEKTISKAKGQPREPQVCTLPPSREEMTKNQVSLWCLVKGFYPSDIAVEWESNGQPENNYKTTPPVLDSDGSFFLYSKLTVDKSRWQQGNVFSCSVMHEALHNHYTQKSLSLSPG
chain 2: QAVVTQEPSLTVSPGGTVTLTCRSSTGAVTTSNYANWVQQKPGQAPRGLIGGTNKRAPWTPARFSGSLLGGKAALTITGAQAEDEADYYCALWYSNLWVFGGGTKLTVLGGGGSGGGGEVQLVQSGAEVKKPGASVKVSCKASGYTFTSYGISWVRQAPGQGLEWMGWISAYNGNTNYAQKLQGRVTMTTDTSTSTAYMELRSLRSDDTAVYYCATIDTANAFGIWGQGTMVTVSSGCPPCPAPEAAGAPSVFLFPPKPKDTLMISRTPEVTCVVVDVSHEDPEVKFNWYVDGVEVHNAKTKPREEQYNSTYRVVSVLTVLHQDWLNGKEYKCKVSNKALPAPIEKTISKAKGQPREPQVYTLPPCREEMTKNQVSLSCAVKGFYPSDIAVEWESNGQPENNYKTTPPVLDSDGSFFLVSKLTVDKSRWQQGNVFSCSVMHEALHNHYTQKSLSLSPG
As to B1, in [1], the “CTL assay on CHO P-cadherin cells, cell viability after 48 hours, EC50” value was 0.00041 nM. The binding result in the assay with muP-cad-ECD, with P-cadherin ECD1-2-Fc and with P-cadherin ECD1-Fc was “no binding” each time. Further, the Kd in assay [2] was 0.521 nM; in [3] it was 0.683 nM and 0.359 nM; in [4], 0.683 nM and 0.359 nM; in assay [6] it was 0.521 nM; in assay [7] it was 0.521 nM. The koff in assay [3] was 0.0002 s⁻¹ and 0.000209 s⁻¹; in [4], 0.0002 s⁻¹ and 0.000209 s⁻¹. Besides, the kon in assay [3] was 293000 M⁻¹ s⁻¹ and 581000 M⁻¹ s⁻¹; in assay [4], 293000 M⁻¹ s⁻¹ and 581000 M⁻¹ s⁻¹. The t½ in assay [3] was 54.4 min and 52.2 min; in assay [4], 54.4 min and 52.2 min. For the same molecule, the “DU145 CTL (LDH) EC50” value in [5] was found to be 0.0006 nM. For the same molecule, in assay [5], the “HCT116 CTL (Luc) EC50” value came to 0.0004 nM.

B2: 154 LP-DART (bispecific antibody)
chain 1: QSVLTQPPSVSAAPGQKVTISCSGSSSNIGNNYVSWYQQLPGTAPKLLIYDNNKRPSGIPDRFSGSKSGTSATLGITGLQTGDEADYYCGTWDSSLSSYVFGTGTKVTVLGGGSGGGGEVQLVESGGGLVQPGGSLRLSCAASGFTFSTYAMNWVRQAPGKGLEWVGRIRSKYNNYATYYADSVKGRFTISRDDSKNSLYLQMNSLKTEDTAVYYCVRHGNFGNSYVSWFAYWGQGTLVTVSSGCPPCPAPEAAGAPSVFLFPPKPKDTLMISRTPEVTCVVVDVSHEDPEVKFNWYVDGVEVHNAKTKPREEQYNSTYRVVSVLTVLHQDWLNGKEYKCKVSNKALPAPIEKTISKAKGQPREPQVCTLPPSREEMTKNQVSLWCLVKGFYPSDIAVEWESNGQPENNYKTTPPVLDSDGSFFLYSKLTVDKSRWQQGNVFSCSVMHEALHNHYTQKSLSLSPG
chain 2: QAVVTQEPSLTVSPGGTVTLTCRSSTGAVTTSNYANWVQQKPGQAPRGLIGGTNKRAPWTPARFSGSLLGGKAALTITGAQAEDEADYYCALWYSNLWVFGGGTKLTVLGGGGSGGGGEVQLVQSGAEVKKPGASVKVSCKASGYTFTSYGISWVRQAPGQGLEWMGWISAYNGNTNYAQKLQGRVTMTTDTSTSTAYMELRSLRSDDTAVYYCATIDTATAFDIWGQGTMVTVSSGCPPCPAPEAAGAPSVFLFPPKPKDTLMISRTPEVTCVVVDVSHEDPEVKFNWYVDGVEVHNAKTKPREEQYNSTYRVVSVLTVLHQDWLNGKEYKCKVSNKALPAPIEKTISKAKGQPREPQVYTLPPCREEMTKNQVSLSCAVKGFYPSDIAVEWESNGQPENNYKTTPPVLDSDGSFFLVSKLTVDKSRWQQGNVFSCSVMHEALHNHYTQKSLSLSPG
Molecule B2 came in with a Kd in assay [2] of 5.5 nM. In assay [4], the Kd was 5.47 nM and 5.53 nM; the koff is 0.00332 s⁻¹ and 0.00343 s⁻¹; the kon is 607000 M⁻¹ s⁻¹ and 620000 M⁻¹ s⁻¹; the t½ is 3.27 min and 3.18 min. Besides, in assay [5], the “DU145 CTL (LDH) EC50” value amounted to 0.0017 nM and the “HCT116 CTL (Luc) EC50” value was 0.0072 nM. In assay [7], this molecule registered a Kd of 5.5 nM.

B3: 153 VF-DART (bispecific antibody)
chain 1: QSVLTQPPSVSAAPGQKVTISCSGSSSNIGNNYVSWYQQLPGTAPKLLIYDNNKRPSGIPDRFSGSKSGTSATLGITGLQTGDEADYYCGTWDSSLSGVVFGGGTKLTVLGGGSGGGGEVQLVESGGGLVQPGGSLRLSCAASGFTFSTYAMNWVRQAPGKGLEWVGRIRSKYNNYATYYADSVKGRFTISRDDSKNSLYLQMNSLKTEDTAVYYCVRHGNFGNSYVSWFAYWGQGTLVTVSS
chain 2: QAVVTQEPSLTVSPGGTVTLTCRSSTGAVTTSNYANWVQQKPGQAPRGLIGGTNKRAPWTPARFSGSLLGGKAALTITGAQAEDEADYYCALWYSNLWVFGGGTKLTVLGGGGSGGGGEVQLVQSGAEVKKPGASVKVSCKASGYTFTSYGISWVRQAPGQGLEWMGWISAYNGNTNYAQKLQGRVTMTTDTSTSTAYMELRSLRSDDTAVYYCATIDTANAFGIWGQGTMVTVSS
modifications: One interchain disulfide between the Linker 2 cysteines; these linkers are left out of the letters.
notes: not shown: The C-terminal cysteine Linker 2 on each chain
As to B3, in assay [3], the Kd was 0.332 nM and 0.304 nM; the koff was 0.00024 s⁻¹ and 0.000229 s⁻¹; the kon was 722000 M⁻¹ s⁻¹ and 752000 M⁻¹ s⁻¹; the t½ is 45.4 min and 47.6 min. Further, in [8], the affinity, expressed as Kd, was 0.31 nM. Besides, in [6], binding was put at a Kd of 0.318 nM. In [9], the “DU145 CTL (LDH) EC50” value was determined as 0.0004 nM and the “HCT116 CTL (Luc) EC50” value was 0.0005 nM.

B4: 154 VF-DART (bispecific antibody, not shown: small tags and cut ends)
chain 1: QSVLTQPPSVSAAPGQKVTISCSGSSSNIGNNYVSWYQQLPGTAPKLLIYDNNKRPSGIPDRFSGSKSGTSATLGITGLQTGDEADYYCGTWDSSLSSYVFGTGTKVTVLGGGSGGGGEVQLVESGGGLVQPGGSLRLSCAASGFTFSTYAMNWVRQAPGKGLEWVGRIRSKYNNYATYYADSVKGRFTISRDDSKNSLYLQMNSLKTEDTAVYYCVRHGNFGNSYVSWFAYWGQGTLVTVSS
chain 2: QAVVTQEPSLTVSPGGTVTLTCRSSTGAVTTSNYANWVQQKPGQAPRGLIGGTNKRAPWTPARFSGSLLGGKAALTITGAQAEDEADYYCALWYSNLWVFGGGTKLTVLGGGGSGGGGEVQLVQSGAEVKKPGASVKVSCKASGYTFTSYGISWVRQAPGQGLEWMGWISAYNGNTNYAQKLQGRVTMTTDTSTSTAYMELRSLRSDDTAVYYCATIDTATAFDIWGQGTMVTVSS
B4 showed a Kd in assay [8] of 2.85 nM. For the same molecule, in assay [9], the “DU145 CTL (LDH) EC50” value amounted to 0.0024 nM and the “HCT116 CTL (Luc) EC50” value was 0.008 nM.
